# Reference: patent US7413873
# Biological target: full length TCF1
# Experiment: cell-based or functional assay
# β-catenin (wild type), sequence (P35222 2-781): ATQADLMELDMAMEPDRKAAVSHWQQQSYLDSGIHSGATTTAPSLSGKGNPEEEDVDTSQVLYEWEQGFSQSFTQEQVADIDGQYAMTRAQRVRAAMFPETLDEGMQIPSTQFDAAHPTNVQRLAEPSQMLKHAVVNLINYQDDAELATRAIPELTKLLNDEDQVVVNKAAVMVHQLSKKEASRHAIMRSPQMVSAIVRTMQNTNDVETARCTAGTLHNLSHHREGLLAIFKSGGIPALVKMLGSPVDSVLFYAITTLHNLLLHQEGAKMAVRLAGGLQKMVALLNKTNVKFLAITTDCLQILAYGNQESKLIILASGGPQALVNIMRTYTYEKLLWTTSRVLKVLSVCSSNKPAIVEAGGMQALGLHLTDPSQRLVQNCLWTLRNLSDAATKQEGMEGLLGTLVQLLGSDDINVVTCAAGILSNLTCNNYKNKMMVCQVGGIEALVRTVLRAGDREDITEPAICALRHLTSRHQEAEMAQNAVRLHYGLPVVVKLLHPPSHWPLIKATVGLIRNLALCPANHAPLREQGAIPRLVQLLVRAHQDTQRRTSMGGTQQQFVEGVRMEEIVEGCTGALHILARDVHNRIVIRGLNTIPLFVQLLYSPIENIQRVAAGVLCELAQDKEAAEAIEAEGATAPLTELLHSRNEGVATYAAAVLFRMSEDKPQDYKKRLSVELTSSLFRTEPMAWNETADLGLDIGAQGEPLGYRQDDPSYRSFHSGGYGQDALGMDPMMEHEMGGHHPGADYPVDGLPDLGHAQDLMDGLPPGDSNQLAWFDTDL
substance,measurement,value
β-catenin (wild type),"activation of luciferase reporter gene driven by the LEF1 promoter (-672, +305), co-transfection in 2017 T lymphocytes",7 fold
